Target: T1, full-length mFLT3 (Mus musculus, UniProt Q00342)
T1 construct: host or cells: HEK293T
T1 sequence (Q00342 28-1000): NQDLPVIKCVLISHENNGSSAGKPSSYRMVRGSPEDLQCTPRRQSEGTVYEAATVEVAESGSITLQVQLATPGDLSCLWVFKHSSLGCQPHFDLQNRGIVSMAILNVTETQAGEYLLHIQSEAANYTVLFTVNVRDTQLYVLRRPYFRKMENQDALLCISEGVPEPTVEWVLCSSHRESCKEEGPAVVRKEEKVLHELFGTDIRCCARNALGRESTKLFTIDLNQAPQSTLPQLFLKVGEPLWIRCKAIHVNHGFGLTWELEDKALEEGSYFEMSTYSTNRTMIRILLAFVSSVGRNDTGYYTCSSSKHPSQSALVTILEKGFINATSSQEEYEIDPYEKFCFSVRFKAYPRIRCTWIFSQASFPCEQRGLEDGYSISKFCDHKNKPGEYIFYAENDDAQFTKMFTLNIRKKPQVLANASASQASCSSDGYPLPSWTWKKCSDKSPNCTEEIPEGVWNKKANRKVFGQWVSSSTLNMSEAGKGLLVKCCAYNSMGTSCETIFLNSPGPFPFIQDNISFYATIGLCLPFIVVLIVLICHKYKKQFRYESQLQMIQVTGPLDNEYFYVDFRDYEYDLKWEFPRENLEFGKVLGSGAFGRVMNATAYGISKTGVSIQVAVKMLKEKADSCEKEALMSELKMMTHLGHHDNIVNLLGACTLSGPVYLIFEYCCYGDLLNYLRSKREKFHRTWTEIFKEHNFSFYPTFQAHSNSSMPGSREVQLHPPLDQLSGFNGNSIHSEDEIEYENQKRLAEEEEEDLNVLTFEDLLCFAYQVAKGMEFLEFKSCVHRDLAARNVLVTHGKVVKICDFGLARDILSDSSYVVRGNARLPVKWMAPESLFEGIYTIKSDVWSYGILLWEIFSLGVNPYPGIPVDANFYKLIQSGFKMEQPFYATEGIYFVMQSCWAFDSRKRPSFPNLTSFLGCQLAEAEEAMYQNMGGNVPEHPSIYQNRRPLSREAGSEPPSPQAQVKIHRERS
Experiment: TR-FRET displacement of Red-FL binding, HEK cells expressing full-length mFLT3
Conditions: HEK cells expressing full-length mFLT3, 0.5 nM Red-FL
Experimental: The binding of the A3 antibody to full-length hFLT3 and mFLT3 was measured by displacement of extracellular FL binding on recombinant HEK cells by using time-resolved fluorescence resonance energy transfer (TR-FRET).
Chemicals and reagents. The Tag-lite® labeling medium was from Cisbio Bioassays (Condolet, France). The Lumi4-Tb derivative of O6-Benzylguanine was synthesized by Cisbio Bioassays and is commercialized as SNAP-Lumi4-Tb (Cisbio Bioassays, Ref. SSNPTBE).
A recombinant rh-FLT3-L was produced as previously reported (Verstraete K, et al. Efficient production of bioactive recombinant human Flt3 ligand in E. coli. Protein J, 2009 28: 57-65) and labeled with a red fluorescent probe (Red-FL). Poly-L-ornithine (MW of 30,000-70,000 daltons) was from Sigma-Aldrich. The plasmids encoding for the SNAP tagged human FLT3 (pSNAP-hFLT3) or the mouse FLT3 (pSNAP-mFLT3) used for transient transfection was obtained from Cisbio Bioassays. Monoclonal antibodies against FLT3 (8F2) and phosphotyrosine FLT3 (PY969) were purchased from Cell Signaling Technology and labeled with Lumi4-Tb and d2 respectively, by Cisbio.
Cell culture. HEK293T cells, used for binding assays, were maintained in DMEM Glutamax (Invitrogen) supplemented with antibiotics (penicillin 50 U/ml, streptomycin 50 μg/ml) and 10% heat-inactivated Fetal Calf Serum.
Transfection procedures. […]

B1: A3 antibody: human monoclonal antibody against FLT3; VH SEQ ID NO:1, VL SEQ ID NO:2 (antibody, V domains shown)
VH: EVQLVESGGSLVKPGGSLRLSCAASGFTFSNSYMNWVRQAPGKGLEWISDISGSSRDIDYADFVKGRFTISRDNATNSLYLQMNSLRAEDTAVYYCVRSGNSGMDVWGRGTLVTVSS
VL: QSVLTQPASVSGSPGQSITISCAGTSSDVGGGYYVSWYQQHPGKAPKLMIYYDSYRPSGVSNRFSGSKSGNTASLTISGLQAEDEADYYCSSYTNNSTRVFGGGTKLEIK
modifications: Synthetic VH domain of A3; Synthetic VL region of A3
IC50, displacement of FL binding: about 17 μg/ml
